Biological target: T1, RIG-I (Homo sapiens, UniProt O95786)
T1 construct: HEK293 cells overexpressing either the full length RIG-I; host or cells: HEK293; HCT116 also for the qRT-PCR validation
T1 sequence (O95786 1-925): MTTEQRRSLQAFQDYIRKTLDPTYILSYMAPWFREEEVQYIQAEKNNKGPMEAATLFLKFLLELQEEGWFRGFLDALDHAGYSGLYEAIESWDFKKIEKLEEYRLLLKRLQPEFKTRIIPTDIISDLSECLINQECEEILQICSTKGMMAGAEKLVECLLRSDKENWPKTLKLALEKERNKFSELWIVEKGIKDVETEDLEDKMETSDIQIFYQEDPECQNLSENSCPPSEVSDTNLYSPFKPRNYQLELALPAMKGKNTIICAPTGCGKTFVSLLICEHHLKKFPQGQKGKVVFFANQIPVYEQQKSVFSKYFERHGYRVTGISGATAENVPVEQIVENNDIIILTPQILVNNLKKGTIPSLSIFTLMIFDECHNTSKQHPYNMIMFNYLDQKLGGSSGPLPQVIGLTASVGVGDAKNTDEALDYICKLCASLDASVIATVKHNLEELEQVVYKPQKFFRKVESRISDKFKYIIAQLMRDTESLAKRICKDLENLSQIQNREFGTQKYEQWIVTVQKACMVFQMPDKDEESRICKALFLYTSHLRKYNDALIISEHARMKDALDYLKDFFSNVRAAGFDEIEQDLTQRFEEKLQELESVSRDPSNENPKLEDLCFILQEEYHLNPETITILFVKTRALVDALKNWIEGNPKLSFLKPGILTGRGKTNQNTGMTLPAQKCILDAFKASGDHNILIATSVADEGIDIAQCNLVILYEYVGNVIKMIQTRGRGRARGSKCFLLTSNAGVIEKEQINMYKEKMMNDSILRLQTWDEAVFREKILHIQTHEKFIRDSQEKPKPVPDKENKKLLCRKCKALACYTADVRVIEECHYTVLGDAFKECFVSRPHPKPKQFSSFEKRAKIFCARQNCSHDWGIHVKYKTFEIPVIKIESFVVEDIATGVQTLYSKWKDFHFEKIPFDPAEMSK
Test: HEK293 IFN-beta promoter dual luciferase reporter, RNA stimulation
Type: cell-based
Settings: in vitro transcribed RNA, RIG-I overexpressing HEK293 cells; also activates endogenous RIG-I
Experimental: We also used reporter HEK293 cells as simple technique to evaluate ability of the given RNA to stimulate IFN-beta production in preliminary in vitro experiments. Technically this was performed as follows: RNA stimulation of HEK293 IFN-beta reporter cells HEK293 cells were seeded in a 24-well plate overnight at a density of 1.5×10^5 cells/ml (75,000 cells/well). Cells were co-transfected with 100 ng of plasmid construct (pCAGGS empty vector, pCAGGS-RIG-I full-length, pCAGGS-RIG-I helicase-RD mutant construct, and […] mutant construct), together with 80 ng of a firefly luciferase reporter gene driven by an IFN-beta promoter and 20 ng of a Renilla luciferase (pRL-null) transfection control. Transfections were performed using a cationic lipid agent, Fugene HD (Promega), at a 3:1 lipid:DNA ratio. Twenty-four hours post-transfection, cells were then stimulated with 1 μg RNA* mixed with Fugene HD at 2:1 lipid: RNA ratio for 24 hours. 20 μl cell lysates were collected in opaque 96-well plates and analyzed for IFN-beta-luciferase and Renilla activity using a BioTek Synergy HT plate reader. The transfection efficiency across different wells was normalized by dividing the IFN-beta luciferase activity with the Renilla activity. All values were further normalized to the unstimulated controls in cells transfected with the empty vector. All pCAGGS RIG-I constructs used in this study were generous gifts from Dr. Jenish Patel and Dr. Adolfo Garcia-Sastre of The Icahn School of Medicine at Mount Sinai in New York City. Synthetic RNA comprised of various stem loop regions of the human U1 snRNA were purchased from IDT Oligos as reported in (Bernard et al., 2012). U1 stem loop I sequence: [NT] ID NO:15); U1 stem loop II sequence: [NT] ID NO:16); U1 stem loop III sequence: [NT] ID NO:17); U1 stem loop IV sequence: [NT] ID NO:18); U1 stem loops I and II sequence: [NT] ID NO:19); U1 stem loops II and III sequence: [NT] ID NO:20). In vitro transcribed U1 RNA stimulation: Full length U1 (pT7U1) plasmid was generously provided by Dr. Joan Steitz (Yale School of Medicine, Yale University). […]

B1: M5: rbRNA, RIG-I agonist, 81 nucleotides, SEQ ID NO:26 (nucleic acid)
chain: GACGAAGACCACAAAACCAGATAAAAAATTATTTTTTATCTGGTTTTGTGGTCTTCGTCTATAGTGAGTCGTATTAATTTC
modifications: listed as DNA, chemistry not given here
- IFN-beta stimulatory activity (IFN-beta luciferase reporter): potent IFN-beta stimulatory activity

— patent US20170268001A1, “RNAS WITH TUMOR RADIO/CHEMO-SENSITIZING AND IMMUNOMODULATORY PROPERTIES AND METHODS OF THEIR PREPARATION AND APPLICATION” (THE UNIVERSITY OF CHICAGO, priority 2016, published 2017)
